According to patent US20240392013A1 (STELEXIS THERAPEUTICS, published 2024):
Positions count from the first letter of the chain named.

T1: recombinant human IL1RAP protein, extracellular domain His-tagged (Sino Biological, Cat #10121-H08H) (human, UniProt Q9NPH3 21-367)
T1 construct: extracellular domain; Bought protein; The Octet analyte is printed as huIL1RAP-His (Sino Biological, lot MB08MA1301) without a catalogue number; also called huIL1RAP-His; hIL1RAP; not shown: His tag
T1 sequence (looked up): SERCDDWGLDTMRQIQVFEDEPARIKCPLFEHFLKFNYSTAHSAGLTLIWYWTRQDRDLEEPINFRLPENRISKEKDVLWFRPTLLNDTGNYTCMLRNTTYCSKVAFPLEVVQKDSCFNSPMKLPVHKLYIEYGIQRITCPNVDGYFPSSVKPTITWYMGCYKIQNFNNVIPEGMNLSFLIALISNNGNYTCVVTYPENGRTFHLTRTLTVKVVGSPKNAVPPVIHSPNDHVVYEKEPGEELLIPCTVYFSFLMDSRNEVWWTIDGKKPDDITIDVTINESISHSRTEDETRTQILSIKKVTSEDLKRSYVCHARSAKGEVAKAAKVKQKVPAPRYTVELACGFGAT

T2: IL1RAP on HEK-Blue IL1β / HEK-Blue IL33 reporter cells (UniProt Q9NPH3 21-570, limits assumed)
T2 sequence (looked up): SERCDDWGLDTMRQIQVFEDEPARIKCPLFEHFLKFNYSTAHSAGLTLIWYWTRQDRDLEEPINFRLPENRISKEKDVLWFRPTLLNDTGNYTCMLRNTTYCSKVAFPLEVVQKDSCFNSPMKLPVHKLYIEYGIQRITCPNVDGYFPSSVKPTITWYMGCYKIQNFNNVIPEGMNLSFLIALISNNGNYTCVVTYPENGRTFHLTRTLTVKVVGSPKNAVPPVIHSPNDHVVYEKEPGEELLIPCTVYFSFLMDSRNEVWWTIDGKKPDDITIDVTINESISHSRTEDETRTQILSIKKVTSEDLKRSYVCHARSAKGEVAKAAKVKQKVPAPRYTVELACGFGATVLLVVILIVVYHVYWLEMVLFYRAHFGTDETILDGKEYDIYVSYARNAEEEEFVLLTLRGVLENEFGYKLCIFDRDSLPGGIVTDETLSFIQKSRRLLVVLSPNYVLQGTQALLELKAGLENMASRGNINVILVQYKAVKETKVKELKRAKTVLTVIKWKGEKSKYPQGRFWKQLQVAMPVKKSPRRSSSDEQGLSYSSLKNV

T3: recombinant mouse IL1RAP protein (Sino Biological, Cat #52657-M08H) (mouse, UniProt Q61730 21-359)
T3 construct: Bought protein
T3 sequence (looked up): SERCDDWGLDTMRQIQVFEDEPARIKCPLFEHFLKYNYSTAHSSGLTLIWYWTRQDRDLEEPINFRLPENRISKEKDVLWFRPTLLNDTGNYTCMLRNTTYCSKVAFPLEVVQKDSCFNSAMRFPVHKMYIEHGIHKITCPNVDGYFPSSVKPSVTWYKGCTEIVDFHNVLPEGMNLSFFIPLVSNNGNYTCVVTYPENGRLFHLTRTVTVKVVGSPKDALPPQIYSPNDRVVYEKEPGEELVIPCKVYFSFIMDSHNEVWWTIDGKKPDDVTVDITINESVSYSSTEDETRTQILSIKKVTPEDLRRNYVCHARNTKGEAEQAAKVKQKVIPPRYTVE

T4: cyIL1RAP-His (Lake Pharma) (cynomolgus monkey, UniProt A0A2K5X5J5 21-367)
T4 construct: Bought protein (Lake Pharma, lot 16205819371); also called cynomolgus IL1RAP; monkey IL1RAP; not shown: His tag
T4 sequence: T1 sequence (looked up) with L183F, T273P, K326T

B1: STLX2017 (antibody, V domains shown)
VH: EVQLVQSGAEVKKPGESLKISCKGSGYSFTSYWIGWVRQMPGKGLEWMGIIWPGDSDTRYSPSFQGQVTISADKSVNTAYLQWISLKASDTAIYYCARSSGGTAMDVWGQGTTVTVSS
VL: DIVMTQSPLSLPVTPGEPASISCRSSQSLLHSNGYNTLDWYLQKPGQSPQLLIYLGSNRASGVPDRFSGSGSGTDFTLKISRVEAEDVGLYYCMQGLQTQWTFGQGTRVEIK
notes: Purified from hybridoma of immunized Alivamab mice; intact IgG; captured on anti-mouse IgG Fc sensors in Octet; kappa light chain; also called 74804_17E20A
B2: STLX2009 (antibody, V domains shown)
VH: QVQLFQSGAEVKKPGASVKVSCKASGYTFTGYYVHWVRQAPGQGLEWMGWINPNSGGTDYAQKFQGRVTMTWDTSISTAYMELSRLRSDDTAVYYCARSYYYYGMDVWGQGTTVTVSS
VL: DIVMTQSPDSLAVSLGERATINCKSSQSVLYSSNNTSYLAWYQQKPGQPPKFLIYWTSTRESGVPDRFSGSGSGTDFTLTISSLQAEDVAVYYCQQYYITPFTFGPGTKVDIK
notes: Purified from hybridoma of immunized Alivamab mice; intact IgG; captured on anti-mouse IgG Fc sensors in Octet; kappa light chain; also called 74804_09H05A
B3: STLX2018 (antibody, V domains shown)
VH: QVQLVQSGAEVKKPGASVKVSCKTSGYTFTSCCMHWVRQAPGQGLEWMGIINPSVGSTSYAQKFQGIVTMTRDTSTSTVYMELSSLRSEDTAVYYCAVDSSGSRYYYGMDVWGQGTTVTVSS
VL: EIVMTQSPATLSVSPGERATLSCRASQSVRSNLAWYQQRPGQAPRLLIYGTSTRATGIPARFSGSGSGTEFTLTISSLQSEDFAVYYCQQYNYWPYTFGQGTKLEIK
notes: Purified from hybridoma of immunized Alivamab mice; intact IgG; captured on anti-mouse IgG Fc sensors in Octet; kappa light chain; also called 74804_18L05A

These binders were tested against T1, recombinant human IL1RAP protein, … (assay: Octet BLI; mAb captured on anti-mouse IgG Fc sensor; huIL1RAP-His analyte).
Description: (§1) Antibodies were diluted in kinetics buffer (0.1% BSA, 0.02% Tween-20 and 0.05% NaN₃ in PBS) and loaded onto 16 channel anti-mouse IgG Fc capture sensors (AMC, Cat #2001073; Sartorius, Göttingen, Germany). Human, huIL1RAP-His (Sino Biological, lot: MB08MA1301), and monkey, cyIL1RAP-His (Lake Pharma, NY, USA; lot:16205819371) proteins were titrated starting from the highest concentration of 100 nM and followed by 50 nM and 25 nM. Purified antibodies were loaded at 5 μg/ml in kinetics buffer. The experimental parameters selected to determine the kinetic constants were Baseline for 60 s, Loading of antibody to sensor for 180 s, Association of analyte to antibody for 120 s, Dissociation for 1200 s and Regeneration in 10 mM Glycine pH 1.7 for 4×30 s.
(§2) Regeneration cycle tracking was selected for 12 cycles. Binding to human and cynomolgus IL1RAP was measured and KD (M) kinetics were calculated. Also, the disassociation rate (Kdis) (1/s) and association rate (Kon) (1/Ms) kinetics were calculated (data not shown).

Row | Kd | Response | koff | kon | Binder
1 | 0.83 nM | 0.17 | 0.000348 s⁻¹ | 420000 M⁻¹ s⁻¹ | B1
2 | 1.64 nM | 0.205 | 0.000272 s⁻¹ | 166000 M⁻¹ s⁻¹ | B2
3 | 1.62 nM | 0.17 | 0.00037 s⁻¹ | 228000 M⁻¹ s⁻¹ | B3

These binders were tested against T2, IL1RAP on HEK-Blue IL1β / HEK-Blue IL33 … (assay: cell-based or functional assay).

Row | IC50, HEK-BlueIL33 NFκB Reporter Assay | Max % Inhibition at 200 nM, HEK-BlueIL33 NFκB Reporter Assay | Binder
4 | 4.82e-09 M (implied; unit not printed) | 80% | B1
5 | 1.1e-08 M (implied; unit not printed) | 74% | B2
6 | 4.81e-09 M (implied; unit not printed) | 93% | B3

What follows are binders tested against T3, recombinant mouse IL1RAP protein (Sino …) (assay: cell-free ELISA, mouse IL1RAP coated; data not shown).
Description: Recombinant human or mouse IL1RAP proteins (Sino Biological, Beijing, China; Cat #10121-H08H and Sino Biological, Cat #52657-M08H respectively) were diluted in PBS, pH 7.4 at concentration of 1 μg/ml, coated on high-binding 384-well clear plates and incubated overnight at 4° C. Following, plates were washed 3× with 0.05% Tween-20 in PBS, pH 7.5 and then blocked with 1% BSA in PBS for 1 hour at room temperature. After 3× washes, wells were incubated with each antibody at the highest concentration of 100 nM followed by seven serial half log dilutions (in 1% BSA and 0.05% Tween-20 in PBS) for 1 hour at room temperature. Plates were then washed 3× and incubated with […] detection antibody (Medna, TX, USA; Cat #D8212, 0.5 μg/ml diluted in 0.02% Tween-20 in PBS). After 5× washes, Supersignal ELISA Pico substrate (Thermofisher, MA, USA; Cat #37069) was applied to wells and chemiluminescent signal was read on Sprectramax L for 200 ms/well. Similarly, detection with specific κ and λ antibodies was conducted to define light chain isotyping.

Row | binding result | Binder
7 | no binding (tested: 100 nM) | B1
8 | no binding (tested: 100 nM) | B2
9 | no binding (tested: 100 nM) | B3

Molecular target: T2, IL1RAP on HEK-Blue IL1β / HEK-Blue IL33 …
Test: cell-based or functional assay
Remark: another data set of the same source

Row | IC50, HEK-BlueIL1β NFκB Reporter Assay | Max % Inhibition at 200 nM, HEK-BlueIL1β NFκB Reporter Assay | Binder
10 | 8.19e-10 M (implied; unit not printed) | 101% | B1
11 | 2e-09 M (implied; unit not printed) | 99% | B2
12 | 1.73e-09 M (implied; unit not printed) | 99% | B3

These binders were tested against T4, cyIL1RAP-His (Lake Pharma) (assay: Octet BLI; mAb captured on anti-mouse IgG Fc sensor; cyIL1RAP-His analyte).
Description: as §1, §2

Row | Kd | Response | koff | kon | Binder
13 | 0.739 nM | 0.192 | 0.000259 s⁻¹ | 351000 M⁻¹ s⁻¹ | B1
14 | 2.87 nM | 0.219 | 0.000408 s⁻¹ | 142000 M⁻¹ s⁻¹ | B2
15 | 4.32 nM | 0.168 | 0.000954 s⁻¹ | 221000 M⁻¹ s⁻¹ | B3
